These results are taken from PMC2745997 (Nature neuroscience, 2009).

In one test the target is UNC-5/HA (C. elegans). The experiment in a line: LUMIER.
Another test concerns the target RCM-HA (in Cos-7 cells) ( (mammalian), UniProt O08747 41-931). The experiment in a line: radioligand binding.

Chain of UNC-5/HA (C. elegans) (Q26261 whole entry): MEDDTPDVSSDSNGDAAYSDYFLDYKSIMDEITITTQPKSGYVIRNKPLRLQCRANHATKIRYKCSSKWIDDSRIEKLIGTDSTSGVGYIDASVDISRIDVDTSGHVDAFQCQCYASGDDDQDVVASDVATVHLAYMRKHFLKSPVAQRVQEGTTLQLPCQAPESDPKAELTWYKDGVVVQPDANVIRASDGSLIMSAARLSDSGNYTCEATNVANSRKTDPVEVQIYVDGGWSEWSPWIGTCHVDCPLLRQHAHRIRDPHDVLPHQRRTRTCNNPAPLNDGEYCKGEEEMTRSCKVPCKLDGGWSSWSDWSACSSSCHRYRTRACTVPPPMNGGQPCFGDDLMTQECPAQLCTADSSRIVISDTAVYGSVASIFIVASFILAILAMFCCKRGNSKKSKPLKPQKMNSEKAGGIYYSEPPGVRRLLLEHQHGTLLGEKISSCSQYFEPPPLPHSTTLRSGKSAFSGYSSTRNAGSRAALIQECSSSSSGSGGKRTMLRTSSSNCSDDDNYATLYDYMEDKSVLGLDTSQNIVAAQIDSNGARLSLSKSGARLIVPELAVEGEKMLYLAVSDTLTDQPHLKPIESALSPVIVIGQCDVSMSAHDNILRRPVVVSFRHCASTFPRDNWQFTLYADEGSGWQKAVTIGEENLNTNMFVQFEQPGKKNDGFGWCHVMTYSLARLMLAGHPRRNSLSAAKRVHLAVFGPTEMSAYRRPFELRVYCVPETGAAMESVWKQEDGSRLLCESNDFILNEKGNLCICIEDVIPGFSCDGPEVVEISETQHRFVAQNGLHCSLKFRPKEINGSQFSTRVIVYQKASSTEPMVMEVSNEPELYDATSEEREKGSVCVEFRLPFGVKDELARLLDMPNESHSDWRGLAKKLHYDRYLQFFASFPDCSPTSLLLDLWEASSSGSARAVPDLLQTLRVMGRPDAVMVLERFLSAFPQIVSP
Chain of RCM-HA (in Cos-7 cells) (O08747 41-931): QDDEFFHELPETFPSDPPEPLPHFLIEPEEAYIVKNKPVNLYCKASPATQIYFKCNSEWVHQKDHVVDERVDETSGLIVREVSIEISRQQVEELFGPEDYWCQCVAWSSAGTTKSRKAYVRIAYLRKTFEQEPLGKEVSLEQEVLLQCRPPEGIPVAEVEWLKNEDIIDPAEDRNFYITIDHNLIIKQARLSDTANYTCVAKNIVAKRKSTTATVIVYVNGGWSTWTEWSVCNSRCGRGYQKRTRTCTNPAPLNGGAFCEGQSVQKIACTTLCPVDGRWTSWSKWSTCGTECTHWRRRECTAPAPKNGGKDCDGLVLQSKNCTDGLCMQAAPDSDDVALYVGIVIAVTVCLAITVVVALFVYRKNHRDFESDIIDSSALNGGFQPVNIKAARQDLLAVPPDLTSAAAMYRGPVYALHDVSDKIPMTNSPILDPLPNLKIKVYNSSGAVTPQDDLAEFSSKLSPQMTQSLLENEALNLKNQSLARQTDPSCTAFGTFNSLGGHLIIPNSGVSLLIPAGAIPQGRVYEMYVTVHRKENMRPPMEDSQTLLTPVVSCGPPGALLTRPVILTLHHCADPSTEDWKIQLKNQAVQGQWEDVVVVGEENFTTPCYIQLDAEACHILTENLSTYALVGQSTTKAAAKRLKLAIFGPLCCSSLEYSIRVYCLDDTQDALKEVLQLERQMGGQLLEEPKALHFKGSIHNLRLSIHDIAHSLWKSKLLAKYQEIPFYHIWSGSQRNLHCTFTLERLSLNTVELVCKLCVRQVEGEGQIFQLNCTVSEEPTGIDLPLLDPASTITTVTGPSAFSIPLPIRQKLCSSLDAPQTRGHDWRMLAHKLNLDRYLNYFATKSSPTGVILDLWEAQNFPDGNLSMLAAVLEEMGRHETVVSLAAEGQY

“Gluc-UNC-129 (from UniProt G5EBY8 19-407) (ligand)” had a fold increase in luciferase activity over mock transfected cells with UNC-5/HA (C. elegans) of 7 fold.

B1: 125I-BMP7 (ligand, UniProt P18075 293-431, looked up)
chain: STGSKQRSQNRSKTPKNQEALRMANVAENSSSDQRQACKKHELYVSFRDLGWQDWIIAPEGYAAYYCEGECAFPLNSYMNATNHAIVQTLVHFINPETVPKPCCAPTQLNAISVLYFDDSSNVILKKYRNMVVRACGCH
modifications: 125I label (iodinated)
Usually Kd stands for the free concentration of one partner at which half of the binding sites on the other are occupied at equilibrium, for simple one-to-one binding. A high value points to lower affinity. For the molecule B1, in the test with RCM-HA (in Cos-7 cells), the Kd amounted to 4 nM.
